In the supplement of paper PMC10567573:

B1: STK38L (parent)
chain: RQLAYSTVGTPDYIAPEVFMQTGY

Variants of: B1
Experiment: protein stability index of a GFP-peptide fusion (GPS, HEK-293T) (PSI 1-6); higher = more stable
Details: c terminus: a fixed tail appended
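Further: lentivirally expressed fusions sorted by FACS into six bins by GFP to DsRed ratio, PSI derived from sequencing read proportions per bin multiplied by bin number.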

Variant	protein stability index
RQFAYSTVGTPDYIAPEVFMQTGY	2.33
RQSAYSTVGTPDYIAPEVFMQTGY	2.65
RQPAYSTVGTPDYIAPEVFMQTGY	2.44
RQMAYSTVGTPDYIAPEVFMQTGY	2.72
RQAAYSTVGTPDYIAPEVFMQTGY	2.55
RQYAYSTVGTPDYIAPEVFMQTGY	2.41
RQQAYSTVGTPDYIAPEVFMQTGY	2.61
RQCAYSTVGTPDYIAPEVFMQTGY	2.06
RQEAYSTVGTPDYIAPEVFMQTGY	3.15
RQDAYSTVGTPDYIAPEVFMQTGY	3.37
RQRAYSTVGTPDYIAPEVFMQTGY	3.09
RQVAYSTVGTPDYIAPEVFMQTGY	2.73
RQTAYSTVGTPDYIAPEVFMQTGY	2.84
RQGAYSTVGTPDYIAPEVFMQTGY	2.74
RQKAYSTVGTPDYIAPEVFMQTGY	2.68
RQNAYSTVGTPDYIAPEVFMQTGY	2.56
RQHAYSTVGTPDYIAPEVFMQTGY	2.43
RQIAYSTVGTPDYIAPEVFMQTGY	2.24
RQWAYSTVGTPDYIAPEVFMQTGY	1.53
RQLAYATVGTPDYIAPEVFMQTGY	1.95
RQLAYMTVGTPDYIAPEVFMQTGY	1.79
RQLAYGTVGTPDYIAPEVFMQTGY	2.32
RQLAYDTVGTPDYIAPEVFMQTGY	2.55
RQLAYWTVGTPDYIAPEVFMQTGY	2.5

Variant	protein stability index
RQLAYNTVGTPDYIAPEVFMQTGY	2.46
RQLAYRTVGTPDYIAPEVFMQTGY	2.79
RQLAYFTVGTPDYIAPEVFMQTGY	1.65
RQLAYITVGTPDYIAPEVFMQTGY	1.78
RQLAYCTVGTPDYIAPEVFMQTGY	1.84
RQLAYVTVGTPDYIAPEVFMQTGY	1.45
RQLAYLTVGTPDYIAPEVFMQTGY	2.08
RQLAYYTVGTPDYIAPEVFMQTGY	1.77
RQLAYPTVGTPDYIAPEVFMQTGY	2.44
RQLAYHTVGTPDYIAPEVFMQTGY	2.63
RQLAYKTVGTPDYIAPEVFMQTGY	2.43
RQLAYETVGTPDYIAPEVFMQTGY	3.3
RQLAYTTVGTPDYIAPEVFMQTGY	2.21
RQLAYQTVGTPDYIAPEVFMQTGY	2.25
RQLAYSTVTTPDYIAPEVFMQTGY	2.7
RQLAYSTVCTPDYIAPEVFMQTGY	1.97
RQLAYSTVATPDYIAPEVFMQTGY	2.63
RQLAYSTVETPDYIAPEVFMQTGY	2.71
RQLAYSTVRTPDYIAPEVFMQTGY	2.65
RQLAYSTVFTPDYIAPEVFMQTGY	2.27
RQLAYSTVDTPDYIAPEVFMQTGY	3.15
RQLAYSTVQTPDYIAPEVFMQTGY	2.77
RQLAYSTVKTPDYIAPEVFMQTGY	2.24
RQLAYSTVSTPDYIAPEVFMQTGY	2.37

Variant	protein stability index
RQLAYSTVPTPDYIAPEVFMQTGY	2.6
RQLAYSTVNTPDYIAPEVFMQTGY	2.62
RQLAYSTVVTPDYIAPEVFMQTGY	1.98
RQLAYSTVHTPDYIAPEVFMQTGY	2.42
RQLAYSTVMTPDYIAPEVFMQTGY	2.59
RQLAYSTVLTPDYIAPEVFMQTGY	3.14
RQLAYSTVITPDYIAPEVFMQTGY	2.17
PQLAYSTVGTPDYIAPEVFMQTGY	3.41
WQLAYSTVGTPDYIAPEVFMQTGY	2.84
MQLAYSTVGTPDYIAPEVFMQTGY	1.79
KQLAYSTVGTPDYIAPEVFMQTGY	2.71
VQLAYSTVGTPDYIAPEVFMQTGY	2.45
QQLAYSTVGTPDYIAPEVFMQTGY	2.47
SQLAYSTVGTPDYIAPEVFMQTGY	2.38
CQLAYSTVGTPDYIAPEVFMQTGY	2.06
YQLAYSTVGTPDYIAPEVFMQTGY	2.51
NQLAYSTVGTPDYIAPEVFMQTGY	2.82
DQLAYSTVGTPDYIAPEVFMQTGY	2.71
EQLAYSTVGTPDYIAPEVFMQTGY	3.06
LQLAYSTVGTPDYIAPEVFMQTGY	1.87
TQLAYSTVGTPDYIAPEVFMQTGY	2.56
FQLAYSTVGTPDYIAPEVFMQTGY	3.13
GQLAYSTVGTPDYIAPEVFMQTGY	1.95
AQLAYSTVGTPDYIAPEVFMQTGY	2.38

Variant	protein stability index
IQLAYSTVGTPDYIAPEVFMQTGY	1.15
HQLAYSTVGTPDYIAPEVFMQTGY	2.38
RQLAYSTNGTPDYIAPEVFMQTGY	2.41
RQLAYSTIGTPDYIAPEVFMQTGY	2.58
RQLAYSTEGTPDYIAPEVFMQTGY	3.29
RQLAYSTQGTPDYIAPEVFMQTGY	2.63
RQLAYSTSGTPDYIAPEVFMQTGY	2.6
RQLAYSTHGTPDYIAPEVFMQTGY	2.92
RQLAYSTAGTPDYIAPEVFMQTGY	2.59
RQLAYSTRGTPDYIAPEVFMQTGY	2.25
RQLAYSTYGTPDYIAPEVFMQTGY	1.74
RQLAYSTLGTPDYIAPEVFMQTGY	2.37
RQLAYSTTGTPDYIAPEVFMQTGY	2.83
RQLAYSTCGTPDYIAPEVFMQTGY	1.49
RQLAYSTPGTPDYIAPEVFMQTGY	2.51
RQLAYSTWGTPDYIAPEVFMQTGY	2.5
RQLAYSTKGTPDYIAPEVFMQTGY	2.98
RQLAYSTFGTPDYIAPEVFMQTGY	2.18
RQLAYSTDGTPDYIAPEVFMQTGY	3.27
RQLAYSTGGTPDYIAPEVFMQTGY	2.76
RQLAYSTMGTPDYIAPEVFMQTGY	2.87
RHLAYSTVGTPDYIAPEVFMQTGY	1.79
